The values below come from paper PMC4873981.

For the experiment, the target named is Myc-MRTF, full-length Y866G mutant (UniProt P59759). The experiment in a line: co-IP; LLC-PK1 cells co-transfected with Myc-MRTF constructs and HA-TAZ constructs, IP with anti-Myc, blot for HA; untreated or LCM 30 min.
UniProt P59759, sequence (P59759 whole entry Y866G): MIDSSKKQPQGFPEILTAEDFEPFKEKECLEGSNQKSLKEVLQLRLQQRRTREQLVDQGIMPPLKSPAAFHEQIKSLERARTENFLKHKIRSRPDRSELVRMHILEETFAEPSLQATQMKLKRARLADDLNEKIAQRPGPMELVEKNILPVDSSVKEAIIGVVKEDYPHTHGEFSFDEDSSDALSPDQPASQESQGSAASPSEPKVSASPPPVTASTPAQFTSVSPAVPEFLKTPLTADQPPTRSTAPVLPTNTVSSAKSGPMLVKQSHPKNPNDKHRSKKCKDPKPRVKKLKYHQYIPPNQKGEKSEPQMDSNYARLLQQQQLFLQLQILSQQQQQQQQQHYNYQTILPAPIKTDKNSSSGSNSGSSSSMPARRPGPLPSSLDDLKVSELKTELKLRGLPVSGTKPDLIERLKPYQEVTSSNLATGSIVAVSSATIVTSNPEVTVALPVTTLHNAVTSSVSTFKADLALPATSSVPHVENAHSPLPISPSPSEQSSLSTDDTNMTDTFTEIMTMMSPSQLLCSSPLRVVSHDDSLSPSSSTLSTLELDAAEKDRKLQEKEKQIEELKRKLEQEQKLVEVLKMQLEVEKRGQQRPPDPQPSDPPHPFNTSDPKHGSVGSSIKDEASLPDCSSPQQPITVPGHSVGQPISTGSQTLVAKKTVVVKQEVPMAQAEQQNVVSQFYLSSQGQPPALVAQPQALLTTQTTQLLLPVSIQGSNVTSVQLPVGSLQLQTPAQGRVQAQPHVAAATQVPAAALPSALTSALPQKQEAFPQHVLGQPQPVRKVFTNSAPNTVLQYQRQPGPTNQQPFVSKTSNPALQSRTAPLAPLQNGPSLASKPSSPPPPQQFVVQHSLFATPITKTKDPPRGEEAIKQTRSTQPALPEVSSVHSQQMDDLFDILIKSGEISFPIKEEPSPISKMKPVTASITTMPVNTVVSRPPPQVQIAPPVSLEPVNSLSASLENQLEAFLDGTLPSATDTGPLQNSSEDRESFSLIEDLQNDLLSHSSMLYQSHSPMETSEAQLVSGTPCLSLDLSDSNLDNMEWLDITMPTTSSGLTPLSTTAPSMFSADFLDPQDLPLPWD

“HA-TAZ, wild type (from UniProt Q9GZV5 1-400) (natural protein)” gave a reduction in association against WT MRTF of more than 50%.
